# Key:
# factor X [1] = target: T1, factor X (Homo sapiens, UniProt P00742); assay: factor X activation by IXa proteins, Ca2+ and VIIIa, no phospholipid; format: biochemical; parameters: Normal human plasma factor IX (IXNP) and factor X were isolated as described in Bajaj and Birktoft; from tissue; host or cells: human plasma (factor X); factor VIII obtained from Dr. Leon Hoyer, American Red Cross; conditions: 14 nM VIIIa, 400 nM factor X
# Protocol: (§1) The ability of each activated mutant to activate factor X in the presence and absence of phospholipid and factor VIIIa was determined as follows. The activation was carried out at 37° C. in a 50 μl reaction volume, in TBS/BSA pH 7.4, for various time periods. At the end of the incubation time period, each reaction mixture received 1 μl of 0.5 M EDTA to stop further generation of factor Xa. A 40 μL aliquot was then added to 0.1 ml quartz cuvette containing S-2222 in 75 μL of TBS/BSA, pH 7.4. The final concentration of S-2222 was 100 μM. The p-nitroaniline release was measured continuously (ΔA405/min) for up to 20 min (Sabharwal et al., 1995 supra; Sabharwal et al., 1997, supra). Factor Xa generated was calculated from a standard curve constructed using factor Xa prepared from insolubilized Russell's viper venom.
# (§2) Factor X activation measurements were made under four experimental regimes. In one, Ca^2+ and phospholipid were present. In this system activation was carried out for 5–15 minutes and the concentration of each IXa protein was 20 nM, phospholipid was 25 μM, and factor X was 100 nM. In the second regime, Ca^2+, phospholipid and factor VIIIa were present. […] In the third regime, only Ca^2+ was present. Here, activation was carried out for 2–20 min and concentration of each IXa protein was 400 nM and factor X was 1 μM. Finally, in the fourth regime, Ca^2+ and VIIIa were present. Here, activation was carried out for 15–120 sec and the concentration of each IXa protein was 2 μM, VIIIa was 14 nM, and factor X was 400 nM.
# (§3) In all of the above factor X activation experiments, the incubation times chosen were those in which the factor Xa generated was always less than 10 nM. This precautionary measure was taken to prevent activation of factor X by the generated factor Xa (see, e.g., Link. and Castellino, 1982, Arch Biochem. Biophys. 215, 215–221). Further, in those incubation mixtures which contained […], control experiments were also performed in which factor VIIIa was omitted. […] In the presence of factor VIIIa, 10 μM phospholipid was used based upon previous observations (Mathur et al., 1997, supra; van Dieijen et al., 1981, J. Biol. Chem. 256, 3433–3442). The concentrations of factor X selected for each set of reaction conditions are those which are below or at the Km values (van Dieijen et al., supra; Fay and Koshibu, 1998, J Biol. Chem. 273, 19049–19054). In this region of the Michaelis-Menton curve, the rate of formation of factor Xa is proportional to the substrate factor X and therefore to the affinity of the factor IXa enzyme for factor X.
# factor X [2] = target: T1, factor X; assay: factor X activation in complete intrinsic Tenase system (IXa, Ca2+, phospholipid, VIIIa); format: biochemical; parameters: Normal human plasma factor IX (IXNP) and factor X were isolated as described in Bajaj and Birktoft; from tissue; host or cells: human plasma (factor X); factor VIII obtained from Dr. Leon Hoyer, American Red Cross; conditions: 70 pM VIIIa, 0.5 nM IXa, 15 nM X, phospholipid present
# Protocol: as §1, §2, §3
# Next, the activation of factor X in a complete intrinsic Tenase system (IXa, Ca^2+, phospholipid, VIIIa) was studied.
# T1 sequence (P00742 183-488 limits assumed): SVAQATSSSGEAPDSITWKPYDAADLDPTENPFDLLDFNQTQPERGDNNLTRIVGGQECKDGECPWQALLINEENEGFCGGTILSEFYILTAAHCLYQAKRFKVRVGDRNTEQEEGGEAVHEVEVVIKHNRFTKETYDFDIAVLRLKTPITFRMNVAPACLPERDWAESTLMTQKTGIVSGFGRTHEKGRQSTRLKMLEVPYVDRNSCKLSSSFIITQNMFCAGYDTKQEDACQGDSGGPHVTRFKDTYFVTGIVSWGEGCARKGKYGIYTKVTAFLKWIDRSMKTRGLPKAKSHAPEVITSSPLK
# T1 sequence (P00742 41-179 limits assumed): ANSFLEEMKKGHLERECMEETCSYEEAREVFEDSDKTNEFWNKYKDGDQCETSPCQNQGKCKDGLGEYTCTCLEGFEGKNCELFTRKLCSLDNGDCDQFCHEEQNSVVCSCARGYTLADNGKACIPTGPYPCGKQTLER
# T1 sequence (P00451 20-759 partner limits assumed): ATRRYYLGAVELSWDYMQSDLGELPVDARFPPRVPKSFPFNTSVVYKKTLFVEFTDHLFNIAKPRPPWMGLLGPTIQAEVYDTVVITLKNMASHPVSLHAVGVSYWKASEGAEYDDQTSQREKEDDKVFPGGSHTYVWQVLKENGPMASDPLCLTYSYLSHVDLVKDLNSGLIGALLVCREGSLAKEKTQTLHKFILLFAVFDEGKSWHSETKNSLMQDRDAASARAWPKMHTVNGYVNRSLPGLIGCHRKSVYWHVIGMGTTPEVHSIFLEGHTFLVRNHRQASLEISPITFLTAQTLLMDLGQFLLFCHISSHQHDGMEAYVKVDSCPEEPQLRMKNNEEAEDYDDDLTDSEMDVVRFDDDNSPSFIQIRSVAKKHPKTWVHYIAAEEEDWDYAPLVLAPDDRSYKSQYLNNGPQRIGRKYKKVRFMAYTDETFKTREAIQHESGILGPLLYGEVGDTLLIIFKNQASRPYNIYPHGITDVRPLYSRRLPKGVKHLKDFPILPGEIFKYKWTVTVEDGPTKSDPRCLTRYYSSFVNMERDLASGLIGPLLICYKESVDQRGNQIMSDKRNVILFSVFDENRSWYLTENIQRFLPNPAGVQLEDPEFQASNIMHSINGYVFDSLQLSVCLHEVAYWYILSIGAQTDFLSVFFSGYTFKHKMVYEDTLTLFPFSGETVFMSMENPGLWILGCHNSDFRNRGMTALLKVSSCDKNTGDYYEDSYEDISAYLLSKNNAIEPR
# T1 sequence (P00451 1668-2351 partner limits assumed): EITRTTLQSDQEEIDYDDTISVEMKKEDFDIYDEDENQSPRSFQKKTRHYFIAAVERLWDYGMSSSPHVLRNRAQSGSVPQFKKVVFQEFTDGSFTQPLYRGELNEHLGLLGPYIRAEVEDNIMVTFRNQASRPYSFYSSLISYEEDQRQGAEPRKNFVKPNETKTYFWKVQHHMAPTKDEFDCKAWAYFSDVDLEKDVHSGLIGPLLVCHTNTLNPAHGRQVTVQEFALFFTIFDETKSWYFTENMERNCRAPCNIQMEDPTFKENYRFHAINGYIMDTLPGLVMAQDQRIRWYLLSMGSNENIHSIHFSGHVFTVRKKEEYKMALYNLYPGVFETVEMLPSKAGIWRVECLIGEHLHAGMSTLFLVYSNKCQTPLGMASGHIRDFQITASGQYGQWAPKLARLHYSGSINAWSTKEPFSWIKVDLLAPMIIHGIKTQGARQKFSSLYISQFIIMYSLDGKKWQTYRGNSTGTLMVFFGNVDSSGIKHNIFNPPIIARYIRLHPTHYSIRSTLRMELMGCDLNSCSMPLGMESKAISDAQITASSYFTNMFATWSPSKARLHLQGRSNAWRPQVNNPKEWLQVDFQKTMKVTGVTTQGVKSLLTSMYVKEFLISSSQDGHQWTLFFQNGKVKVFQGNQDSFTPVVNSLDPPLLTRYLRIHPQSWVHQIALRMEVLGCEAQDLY
substance,measurement,setting,value
IXaV331A: activated factor IX mutant V331A,"X-activation rate, PL-minus system",factor X [1],0.54 ± 0.02 nM/min
same,"X-activation rate, PL-plus system",factor X [2],0.55 ± 0.04 nM/min

# — patent publication US7109170B2, “Region of factor IXa protease domain that interacts with factor VIIIa and methods therefor” (Saint Louis University, priority 1999, dated 2006)
